We go through 1 molecule from US20060153775A1.

Starred links: 1 amine or outer side, 2 acyl side, 3 side chain; linkers in the order of their positions; H or OH if unused. Primed or numbered codes have the meaning given here. DPPE′ = dipalmitoylphosphatidylethanolamine; Glutaryl = O=C(CCCC(=O)[*:2])[*:1]

Test [1] addresses binding target for TKPPR on HAEC (human aortic endothelial cells). As to the kind of experiment: static bubble binding to HAEC, manual count.
Test [2] shares this target. As to the kind of experiment: static bubble binding to HAEC, 5% composition.
Test [3] deals with KB cells (human epidermoid carcinoma cell line). Nature of the test: static bubble binding to KB cells, 5% composition.
For test [4], the target named is binding target for TKPPR on HAEC (human aortic endothelial cells). Nature of the test: static bubble binding to HAEC, 1% D47, no competitor.
Test [5] shares this target. Nature of the test: static bubble binding to HAEC, 5% D47, no competitor.
The target is the same in test [6]. As to the kind of experiment: static bubble binding to HAEC, 2% D47, no competitor.
Test [7] shares this target. Nature of the test: static bubble binding to HAEC, 10% D47, no competitor.
Test [8] shares this target. Nature of the test: static bubble binding to HAEC, 5% composition, no competitor.
For test [9], the target named is binding target for TKPPR on RAEC (rabbit aortic endothelial cells). As to the kind of experiment: static bubble binding to RAEC, 5% composition, no competitor.
Test [10] concerns the target binding target for TKPPR on HAEC (human aortic endothelial cells). As to the kind of experiment: static bubble binding to HAEC, 1% composition, no competition.
Test [11] has the same target. Nature of the test: static bubble binding to HAEC, 5% composition, no competition.
For test [12] the target is unchanged. Nature of the test: static bubble binding to HAEC, 5% composition, untreated cells.
The target is the same in test [13]. Nature of the test: static bubble binding to HAEC treated 4 h with 1 ng/mL TNFα, 5% composition.
The target is the same in test [14]. As to the kind of experiment: static bubble binding to HAEC treated 4 h with 5 ng/mL TNFα, 5% composition.
For test [15] the target is unchanged. Nature of the test: static bubble binding to HAEC treated 4 h with 10 ng/mL TNFα, 5% composition.
Test [16] shares this target. Nature of the test: static bubble binding to HAEC, 5% composition, no competitor (same control as Table 13).

B1: gas-filled microbubbles containing DPPE-Glu-GTKPPR (D47), composition I of Example 5 (peptide)
peptide: {DPPE′-Glutaryl}-GTKPPR-OH
modifications: also: held in phospholipid shell of microbubbles
The molecule B1 yielded a % more bubbles bound than with the 1% composition in test [1] of 31%. The Bubbles Bound in [2] is 7050 bubbles; in test [4], 737 bubbles; in [6] it was 953 bubbles; in test [8], 1250 bubbles; in [10], 555 bubbles; in test [11] it was 726 bubbles. Moreover, the Bubbles Bound in [16] was 1250 bubbles. For the same molecule, the figures for the bubble binding in test [2] and in test [3] were 1120 bubbles and 56 bubbles, respectively. The same molecule yielded a Bubbles Bound- 1% in test [4] of 1640 bubbles. In test [5], the Bubbles Bound- 5% is 2780 bubbles. In addition, in test [6], the Bubbles Bound % was 100 % of control. This molecule showed a Bubbles Bound- 10% in [7] of 1860 bubbles. In test [8], this molecule registered an HAEC bubbles bound of 1420 bubbles. The same molecule returned an RAEC bubbles bound in test [9] of 751 bubbles. For the same molecule, the TKPPR-Bubbles bound is 950 bubbles in test [12], 1520 bubbles in test [13], 1360 bubbles in test [14] and 1020 bubbles in test [15].
